{
  "source": "patent US7442159",
  "key": {"[1]": {"biological_target": "Stoffel fragment of Thermus aquaticus DNA polymerase I fused to p3, displayed on phage (pHEN1-Stoffel) (Thermus aquaticus; filamentous bacteriophage) (UniProt P19821)", "sequence (P19821 290-832 limits assumed)": "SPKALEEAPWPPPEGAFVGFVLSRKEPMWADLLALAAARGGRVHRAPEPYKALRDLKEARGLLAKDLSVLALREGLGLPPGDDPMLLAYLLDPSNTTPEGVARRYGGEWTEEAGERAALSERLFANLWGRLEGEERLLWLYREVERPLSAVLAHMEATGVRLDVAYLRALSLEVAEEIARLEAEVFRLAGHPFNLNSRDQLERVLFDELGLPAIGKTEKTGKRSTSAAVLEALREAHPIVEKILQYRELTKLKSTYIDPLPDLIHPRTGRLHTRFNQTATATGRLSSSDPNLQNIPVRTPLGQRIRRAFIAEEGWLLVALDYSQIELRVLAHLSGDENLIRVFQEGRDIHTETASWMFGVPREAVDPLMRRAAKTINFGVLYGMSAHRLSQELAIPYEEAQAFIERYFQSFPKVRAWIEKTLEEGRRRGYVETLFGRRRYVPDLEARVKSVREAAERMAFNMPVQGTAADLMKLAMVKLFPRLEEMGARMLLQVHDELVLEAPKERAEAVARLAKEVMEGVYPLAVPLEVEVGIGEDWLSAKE", "experiment": "phage ELISA, plate coated with anti-Taq antibody, anti-M13-HRP detection; 10^7 phage particles of clone 10 (selected leader)"}, "[2]": {"biological_target": "Stoffel fragment of Thermus aquaticus DNA polymerase I fused to p3, displayed on phage (pHEN1-Stoffel) (Thermus aquaticus; filamentous bacteriophage) (UniProt P19821)", "experiment": "phage ELISA, plate coated with anti-Taq antibody, anti-M13-HRP detection; 10^9 phage particles of the pelB leader phagemid pHEN1-Stoffel"}},
  "data": [
    {"substance": "anti-Taq antibody (Taqstart, Clontech)", "values": [
      {"measurement": "signal to noise ratio", "setting": "[1]", "result": 1.47},
      {"measurement": "signal to noise ratio", "setting": "[2]", "result": 1.46}
    ]}
  ]
}
